# Source: publication PMC8501957
# Target: MvaT F36D/M44D (P. aeruginosa) (UniProt Q9HW86)
# Test: ITC; gp4 injected into MvaT F36D/M44D in the cell; 20 C; 20 mM Bis-Tris pH 6, 50 mM KCl, 16 mM MgCl2; one set of sites model
substance,measurement,value
gp4 of Pseudomonas phage LUZ24 (natural protein),Kd,170 nM
same,stoichiometry N,0.56
gp4 K42E/K45E (natural protein),Kd,1360 nM
same,stoichiometry N,0.52
